From paper PMC8729259 (RSC Chemical Biology, 2021)

Biological target: T1, His-SUMO-tagged SARS-CoV-2 nsp14 N-terminal ExoN domain (residues 1 to 289) (SARS-CoV-2)
T1 chain: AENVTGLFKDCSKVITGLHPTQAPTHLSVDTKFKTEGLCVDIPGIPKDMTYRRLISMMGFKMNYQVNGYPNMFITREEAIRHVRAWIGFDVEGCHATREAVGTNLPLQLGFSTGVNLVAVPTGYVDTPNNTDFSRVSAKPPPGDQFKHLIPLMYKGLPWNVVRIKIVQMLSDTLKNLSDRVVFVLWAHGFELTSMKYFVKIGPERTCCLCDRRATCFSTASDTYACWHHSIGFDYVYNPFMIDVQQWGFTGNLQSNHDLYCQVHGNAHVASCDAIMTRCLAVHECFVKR
Assay: MST
Conditions: both partners purified

B1: SARS-CoV-2 non-structural protein 10 (nsp10), full-length, without affinity tag (natural protein)
chain: AGNATEVPANSTVLSFCAFAVDAAKAYKDYLASGGQPITNCVKMLCTHTGTGQAITVTPEANMDQESFGGASCCLYCRCHIDHPNPKGFCDLKGKYVQIPTTCANDPVGFTLKNTVCTVCGMWKGYGCSCDQLREPMLQ
Work on B1 yielded a Kd of 900 ± 300 nM.
